Laboratory results published in PMC10829871.

Biological target: Recombinant human LILRB4 protein (ECD, hFc Tag) (human) (UniProt Q8NHJ6)
Experiment: BLI

UniProt Q8NHJ6, sequence (Q8NHJ6 22-259): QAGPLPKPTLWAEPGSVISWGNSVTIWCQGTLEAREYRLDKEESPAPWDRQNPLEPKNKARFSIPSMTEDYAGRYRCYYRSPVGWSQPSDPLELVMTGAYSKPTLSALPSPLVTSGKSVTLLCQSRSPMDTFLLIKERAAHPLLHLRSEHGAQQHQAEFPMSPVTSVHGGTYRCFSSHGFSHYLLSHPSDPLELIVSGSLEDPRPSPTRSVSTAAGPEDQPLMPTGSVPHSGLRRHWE

Q: With “Recombinant human Galectin 8/LGALS8 protein (from UniProt O00214 1-317) (natural protein)” as the substance, how does the Kd read?
A: Its Kd is 1020 nM.

Q: What about the koff of the same substance?
A: The koff was 0.131 s⁻¹.
